Source: the supplement of paper PMC10065799, “High-throughput profiling of sequence recognition by tyrosine kinases and SH2 domains using bacterial peptide display” (eLife, 2023)

Tests used:
[1] = system: AncSZ; assay: phosphorylation enrichment, bacterial display (enrichment ratio); higher = better substrate or ligand; peptides without Tyr show the background
[2] = target: EPHB1 (UniProt P54762); assay: as above
[3] = target: EPHB2 (UniProt P29323); assay: as above
[4] = target: FGFR1 (UniProt P11362); assay: as above
[5] = target: FGFR3 (UniProt P22607); assay: as above
FGFR3, sequence (P22607 whole entry, looked up): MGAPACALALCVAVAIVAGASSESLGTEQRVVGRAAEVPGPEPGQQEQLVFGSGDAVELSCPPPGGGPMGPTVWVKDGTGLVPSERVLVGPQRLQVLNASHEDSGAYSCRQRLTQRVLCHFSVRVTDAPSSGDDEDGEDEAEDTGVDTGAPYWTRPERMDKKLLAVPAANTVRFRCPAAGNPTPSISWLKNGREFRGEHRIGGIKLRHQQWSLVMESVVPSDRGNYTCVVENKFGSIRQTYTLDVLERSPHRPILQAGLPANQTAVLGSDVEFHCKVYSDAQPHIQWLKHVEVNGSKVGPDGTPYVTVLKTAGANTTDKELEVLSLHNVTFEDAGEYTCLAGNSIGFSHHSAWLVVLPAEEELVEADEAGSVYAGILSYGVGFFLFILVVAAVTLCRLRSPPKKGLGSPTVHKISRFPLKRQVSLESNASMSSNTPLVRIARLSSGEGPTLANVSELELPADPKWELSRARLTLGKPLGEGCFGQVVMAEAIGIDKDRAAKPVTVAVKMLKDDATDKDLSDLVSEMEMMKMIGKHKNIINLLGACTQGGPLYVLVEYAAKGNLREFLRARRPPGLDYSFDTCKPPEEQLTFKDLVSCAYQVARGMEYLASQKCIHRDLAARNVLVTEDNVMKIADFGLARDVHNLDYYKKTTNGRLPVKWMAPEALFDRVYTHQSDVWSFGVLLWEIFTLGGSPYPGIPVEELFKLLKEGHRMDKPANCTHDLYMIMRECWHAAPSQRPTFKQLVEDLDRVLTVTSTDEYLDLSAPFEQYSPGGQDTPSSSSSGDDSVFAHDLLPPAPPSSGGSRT

[6] = system: Fer (mouse); assay: as above
[7] = target: Fes (UniProt P07332); assay: as above
Fes, sequence (P07332 whole entry, looked up): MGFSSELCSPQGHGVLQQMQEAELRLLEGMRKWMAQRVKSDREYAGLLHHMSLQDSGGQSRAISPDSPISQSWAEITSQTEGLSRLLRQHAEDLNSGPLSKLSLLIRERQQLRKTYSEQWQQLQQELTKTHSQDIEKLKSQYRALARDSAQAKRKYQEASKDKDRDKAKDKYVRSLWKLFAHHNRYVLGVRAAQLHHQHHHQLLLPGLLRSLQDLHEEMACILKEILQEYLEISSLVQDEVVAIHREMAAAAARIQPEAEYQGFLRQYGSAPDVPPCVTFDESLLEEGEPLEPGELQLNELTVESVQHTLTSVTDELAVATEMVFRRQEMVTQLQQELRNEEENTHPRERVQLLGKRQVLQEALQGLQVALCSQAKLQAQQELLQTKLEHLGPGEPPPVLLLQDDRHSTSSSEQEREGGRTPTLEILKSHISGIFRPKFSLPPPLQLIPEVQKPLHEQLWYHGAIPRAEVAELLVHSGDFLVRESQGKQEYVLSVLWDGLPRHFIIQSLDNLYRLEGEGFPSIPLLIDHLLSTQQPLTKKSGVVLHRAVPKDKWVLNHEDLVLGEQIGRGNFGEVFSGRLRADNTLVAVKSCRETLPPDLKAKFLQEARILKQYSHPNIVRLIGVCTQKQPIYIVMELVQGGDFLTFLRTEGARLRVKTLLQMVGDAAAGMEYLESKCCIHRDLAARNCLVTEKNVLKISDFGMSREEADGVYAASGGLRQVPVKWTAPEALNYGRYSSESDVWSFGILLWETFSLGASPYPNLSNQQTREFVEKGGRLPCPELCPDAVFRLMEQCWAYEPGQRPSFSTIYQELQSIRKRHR

[8] = target: Fyn (UniProt P06241); assay: as above
Fyn, sequence (P06241 whole entry, looked up): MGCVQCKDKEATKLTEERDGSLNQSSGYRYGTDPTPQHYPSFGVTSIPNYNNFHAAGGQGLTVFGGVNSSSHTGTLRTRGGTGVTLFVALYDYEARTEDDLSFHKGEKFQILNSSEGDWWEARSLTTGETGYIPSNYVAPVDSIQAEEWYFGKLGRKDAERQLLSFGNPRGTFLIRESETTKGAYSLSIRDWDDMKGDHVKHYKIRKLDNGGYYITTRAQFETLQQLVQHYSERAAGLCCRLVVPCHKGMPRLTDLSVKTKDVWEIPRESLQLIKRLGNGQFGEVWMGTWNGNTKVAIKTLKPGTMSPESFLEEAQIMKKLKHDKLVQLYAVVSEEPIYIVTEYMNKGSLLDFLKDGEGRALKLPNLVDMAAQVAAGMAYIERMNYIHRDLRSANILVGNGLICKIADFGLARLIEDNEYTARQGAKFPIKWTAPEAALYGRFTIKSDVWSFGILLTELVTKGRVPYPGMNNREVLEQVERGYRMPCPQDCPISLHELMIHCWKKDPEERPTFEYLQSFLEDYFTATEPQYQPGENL

[9] = target: Hck (UniProt P08631); assay: as above
Hck, sequence (P08631 whole entry, looked up): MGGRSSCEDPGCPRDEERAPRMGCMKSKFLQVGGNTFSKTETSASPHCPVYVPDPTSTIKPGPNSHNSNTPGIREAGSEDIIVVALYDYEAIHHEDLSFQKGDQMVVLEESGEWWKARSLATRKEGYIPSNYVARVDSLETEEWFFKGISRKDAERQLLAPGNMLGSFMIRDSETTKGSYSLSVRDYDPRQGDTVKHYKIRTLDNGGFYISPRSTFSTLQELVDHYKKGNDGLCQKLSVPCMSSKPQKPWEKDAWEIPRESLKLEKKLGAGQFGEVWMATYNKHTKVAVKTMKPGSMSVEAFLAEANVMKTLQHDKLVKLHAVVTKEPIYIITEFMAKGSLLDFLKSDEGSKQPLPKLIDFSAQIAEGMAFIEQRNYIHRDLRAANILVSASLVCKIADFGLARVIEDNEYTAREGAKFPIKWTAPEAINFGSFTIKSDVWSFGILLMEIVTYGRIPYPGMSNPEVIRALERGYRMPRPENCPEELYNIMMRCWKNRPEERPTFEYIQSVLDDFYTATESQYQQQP

[10] = target: Jak2 (UniProt O60674); assay: as above
[11] = target: MERTK (UniProt Q12866); assay: as above
MERTK, sequence (Q12866 whole entry, looked up): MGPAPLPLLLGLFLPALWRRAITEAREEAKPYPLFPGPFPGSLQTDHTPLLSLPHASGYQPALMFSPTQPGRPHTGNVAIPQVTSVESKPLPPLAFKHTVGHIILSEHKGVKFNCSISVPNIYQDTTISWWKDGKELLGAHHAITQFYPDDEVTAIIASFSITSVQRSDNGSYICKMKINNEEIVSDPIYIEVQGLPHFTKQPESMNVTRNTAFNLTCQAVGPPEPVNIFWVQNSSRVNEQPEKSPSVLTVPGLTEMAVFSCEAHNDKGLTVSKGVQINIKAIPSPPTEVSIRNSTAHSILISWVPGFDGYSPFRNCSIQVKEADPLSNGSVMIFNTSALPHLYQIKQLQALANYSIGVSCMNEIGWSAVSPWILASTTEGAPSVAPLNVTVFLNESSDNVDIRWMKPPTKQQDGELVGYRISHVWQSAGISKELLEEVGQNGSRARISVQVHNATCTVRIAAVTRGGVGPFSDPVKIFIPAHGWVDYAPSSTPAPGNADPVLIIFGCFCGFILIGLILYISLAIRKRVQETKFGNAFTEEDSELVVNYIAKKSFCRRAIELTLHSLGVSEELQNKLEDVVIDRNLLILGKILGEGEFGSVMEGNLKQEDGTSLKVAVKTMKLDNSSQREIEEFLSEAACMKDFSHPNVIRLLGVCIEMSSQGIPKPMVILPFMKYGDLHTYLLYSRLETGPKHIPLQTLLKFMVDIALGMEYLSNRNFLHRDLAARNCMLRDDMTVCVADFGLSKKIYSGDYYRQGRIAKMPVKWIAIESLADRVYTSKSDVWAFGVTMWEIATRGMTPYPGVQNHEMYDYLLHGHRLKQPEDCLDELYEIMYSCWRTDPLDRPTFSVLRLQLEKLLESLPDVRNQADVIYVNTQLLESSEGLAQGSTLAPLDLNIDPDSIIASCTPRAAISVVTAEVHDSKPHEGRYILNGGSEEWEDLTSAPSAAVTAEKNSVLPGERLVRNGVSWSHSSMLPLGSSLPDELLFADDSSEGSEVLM

[12] = system: c-Abl (mouse); assay: as above
[13] = system: c-Src; assay: as above
[14] = target: Grb2 SH2 (UniProt P62993); assay: SH2 binding enrichment of the phosphorylated peptide, bacterial display (enrichment ratio); higher = better substrate or ligand; peptides without Tyr show the background
[15] = target: SHP2-C SH2; assay: as above
[16] = target: c-Src SH2; assay: as above
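Throughout, for SH2 binding enrichment of the phosphorylated peptide, bacterial display: peptide library displayed on the E. coli surface as eCPX fusions, selected cells deep-sequenced, score is each peptide's frequency after selection divided by its frequency in the input.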
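Throughout, for phosphorylation enrichment, bacterial display: 11-residue human phosphosite peptides and single-mutation variants displayed on the E. coli surface, counted by deep sequencing, each peptide's frequency after selection divided by its frequency in the unselected input library; frequency after pTyr selection over input frequency; kinase dosed for 20-30% of maximal phosphorylation in three min.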

EPHB1, sequence (P54762 whole entry, looked up): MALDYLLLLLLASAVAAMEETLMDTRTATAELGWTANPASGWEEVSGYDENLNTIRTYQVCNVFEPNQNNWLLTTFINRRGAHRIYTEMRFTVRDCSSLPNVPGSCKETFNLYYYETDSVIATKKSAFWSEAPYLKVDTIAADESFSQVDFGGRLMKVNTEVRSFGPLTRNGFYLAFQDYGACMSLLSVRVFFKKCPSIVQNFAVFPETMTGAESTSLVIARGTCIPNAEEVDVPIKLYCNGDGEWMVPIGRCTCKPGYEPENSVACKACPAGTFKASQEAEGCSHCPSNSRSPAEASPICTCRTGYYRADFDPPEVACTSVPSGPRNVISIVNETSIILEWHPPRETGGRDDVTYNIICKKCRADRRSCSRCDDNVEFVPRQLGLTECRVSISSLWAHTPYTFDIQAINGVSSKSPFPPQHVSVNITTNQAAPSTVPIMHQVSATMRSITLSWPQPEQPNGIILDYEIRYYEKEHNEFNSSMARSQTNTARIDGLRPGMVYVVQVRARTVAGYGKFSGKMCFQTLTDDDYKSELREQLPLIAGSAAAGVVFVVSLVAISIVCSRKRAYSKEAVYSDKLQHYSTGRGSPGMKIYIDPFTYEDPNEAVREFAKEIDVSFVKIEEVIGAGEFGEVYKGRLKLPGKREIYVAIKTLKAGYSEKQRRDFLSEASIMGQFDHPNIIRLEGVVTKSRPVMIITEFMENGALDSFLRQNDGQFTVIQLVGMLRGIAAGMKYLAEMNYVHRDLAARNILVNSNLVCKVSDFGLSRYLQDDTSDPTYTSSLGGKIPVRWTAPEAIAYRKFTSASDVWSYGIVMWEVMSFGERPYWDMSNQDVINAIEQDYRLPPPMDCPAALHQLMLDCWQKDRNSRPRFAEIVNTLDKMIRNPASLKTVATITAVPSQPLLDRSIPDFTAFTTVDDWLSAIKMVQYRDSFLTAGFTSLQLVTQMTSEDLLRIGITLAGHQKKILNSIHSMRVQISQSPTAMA

Row | SH2 binding enrichment [14] | SH2 binding enrichment [15] | SH2 binding enrichment [16] | Sequence | phosphorylation enrichment [1] | phosphorylation enrichment [2] | phosphorylation enrichment [3] | phosphorylation enrichment [4] | phosphorylation enrichment [5] | phosphorylation enrichment [6] | phosphorylation enrichment [7] | phosphorylation enrichment [8] | phosphorylation enrichment [9] | phosphorylation enrichment [10] | phosphorylation enrichment [11] | phosphorylation enrichment [12] | phosphorylation enrichment [13]
1 | 1.21 | 0.764 | 0.516 | HHTDECEYDEL [TGM1_Y134_Y134C] | 1.8 | 0.835 | 0.772 | 0.504 | 1.03 | 0.729 | 1.75 | 0.869 | 0.667 | 1.33 | 0.641 | 0.906 | 0.894
2 | 0.869 | 0.776 | 0.504 | HQNGMYRLHQD [SGSH_Y89_G90R] | 0.814 | 0.741 | 0.745 | 0.521 | 0.661 | 0.66 | 0.971 | 0.42 | 0.461 | 0.933 | 0.414 | 0.549 | 0.5
3 | 1.35 | 1.55 | 1.11 | HRAVEYLLMGI [RAD23A_Y197_T200M] | 0.976 | 0.479 | 0.419 | 1.19 | 1.02 | 0.351 | 0.802 | 0.429 | 0.552 | 0.921 | 0.471 | 0.665 | 0.441
4 | 1.13 | 0.632 | 3.99 | HVKHNYECLVF [XRCC5_Y416_I412V_YF] | 1.23 | 1.36 | 1.16 | 0.558 | 0.928 | 1.09 | 1.17 | 0.584 | 0.581 | 1.71 | 0.948 | 1.23 | 0.754
5 | 0.768 | 0.622 | 0.413 | IDGLEYLHSQS [STK11_Y166_G171S] | 0.953 | 0.503 | 0.549 | 0.457 | 0.597 | 0.476 | 1.07 | 0.465 | 0.604 | 0.831 | 0.325 | 0.616 | 0.357
6 | 0.889 | 0.932 | 0.676 | IFGASYVPFAA [RBM47_Y541_YF] | 0.775 | 0.432 | 0.53 | 0.589 | 0.636 | 0.542 | 0.783 | 0.609 | 0.92 | 1.27 | 0.71 | 0.496 | 1
7 | 1.05 | 1.83 | 0.927 | IGNGYYFHVFS [MYBPC3_Y1136_R1138H] | 1.46 | 0.848 | 0.552 | 1.61 | 1.52 | 0.604 | 1.39 | 0.43 | 0.45 | 1.73 | 0.503 | 0.919 | 0.354

Continued, sequence first:

Row | Sequence | SH2 binding enrichment [14] | SH2 binding enrichment [15] | SH2 binding enrichment [16] | phosphorylation enrichment [1] | phosphorylation enrichment [2] | phosphorylation enrichment [3] | phosphorylation enrichment [4] | phosphorylation enrichment [5] | phosphorylation enrichment [6] | phosphorylation enrichment [7] | phosphorylation enrichment [8] | phosphorylation enrichment [9] | phosphorylation enrichment [10] | phosphorylation enrichment [11] | phosphorylation enrichment [12] | phosphorylation enrichment [13]
8 | HHIDFYKKTTN [FGFR1_Y654_YF] | 1.05 | 0.61 | 0.325 | 0.855 | 0.503 | 0.418 | 0.629 | 0.457 | 0.604 | 1.19 | 0.435 | 0.378 | 0.53 | 0.408 | 0.491 | 0.489
9 | HILFRYPKEFQ [IDS_Y234_P231L] | 0.625 | 0.791 | 0.572 | 1.33 | 0.822 | 0.797 | 0.866 | 0.92 | 0.779 | 1.19 | 0.63 | 0.603 | 1.59 | 0.573 | 0.744 | 1.64
10 | HLEKKYVHRDS [CSF1R_Y708_R710H] | 1.26 | 1.17 | 0.659 | 0.615 | 0.471 | 0.314 | 0.42 | 0.678 | 0.585 | 0.612 | 0.585 | 0.399 | 0.358 | 0.438 | 0.276 | 0.34
11 | HNVPICEGYAL [ACTC1_Y168_Y168C] | 0.833 | 0.779 | 0.587 | 0.86 | 0.801 | 0.513 | 0.732 | 0.841 | 0.499 | 1 | 0.434 | 0.916 | 0.895 | 0.505 | 0.652 | 0.668
12 | HSGVSYFINLC [IGF2R_Y2024_N2020S_YF] | 0.651 | 0.491 | 0.461 | 1.47 | 0.682 | 0.558 | 0.439 | 0.835 | 0.652 | 1.51 | 0.44 | 0.482 | 1.34 | 0.417 | 1.21 | 0.439
13 | IEKLTYIDKWF [CPS1_Y872] | 0.724 | 0.465 | 0.311 | 0.896 | 0.515 | 0.513 | 0.638 | 0.687 | 0.532 | 0.937 | 0.412 | 0.492 | 0.817 | 0.385 | 0.619 | 0.601
14 | IFLENYNAGTF [CFI_Y421_H418L_YF] | 0.761 | 0.786 | 0.527 | 0.896 | 0.468 | 0.578 | 0.489 | 0.724 | 0.423 | 0.938 | 0.55 | 0.427 | 0.844 | 0.428 | 0.542 | 0.491
15 | IGEGTYGVLFK [CDK2_Y15_V18L_YF] | 0.882 | 0.8 | 0.387 | 0.85 | 1.1 | 1.73 | 0.38 | 0.606 | 0.673 | 0.997 | 8.03 | 6.57 | 0.702 | 1.48 | 0.708 | 5.31
16 | IHTEFYDGLFP [BCR_Y561_K558T] | 0.82 | 0.459 | 0.63 | 1.47 | 0.739 | 0.828 | 0.683 | 0.813 | 1.65 | 1.34 | 1.06 | 3.83 | 0.993 | 1.02 | 0.902 | 1.24
